Substitutions are numbered along the chain they refer to.
Experiments:
[1] = target: T1, human FcγRIIb extracellular domain with C-terminal His-tag (human, UniProt P31994 43-217); test: SPR; binding amount divided by that of 04H1389-G1m/04L1305-k0MT
T1 construct: extracellular domain; also called hFcγR IIb
T1 sequence (looked up): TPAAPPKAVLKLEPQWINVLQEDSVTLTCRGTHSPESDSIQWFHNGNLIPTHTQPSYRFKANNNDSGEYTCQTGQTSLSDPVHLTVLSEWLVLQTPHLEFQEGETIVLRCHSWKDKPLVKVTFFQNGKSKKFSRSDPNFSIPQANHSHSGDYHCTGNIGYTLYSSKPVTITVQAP

[2] = target: T1, human FcγRIIb extracellular domain with …; test: SPR; FcγRIIb bound amount per unit captured Ab
[3] = target: T2, human FcγRIIIa V allotype extracellular domain with C-terminal His-tag (human, UniProt P08637 17-208); test: SPR Biacore T200, captured Ab, pH 7.4, steady state model
T2 construct: extracellular domain; also called hFcγR IIIa V

[4] = target: T3, human FcγRIa extracellular domain with C-terminal His-tag (human, UniProt P12314 16-292); test: SPR Biacore T200, captured Ab, pH 7.4
T3 construct: extracellular domain; also called hFcγR Ia; hFcγRIa

[5] = target: T4, human FcγRIIIa F allotype extracellular domain with C-terminal His-tag (human, UniProt P08637 17-208); test: SPR Biacore T200, captured Ab, pH 7.4
T4 construct: extracellular domain; also called hFcγR IIIa F

[6] = target: T5, human FcγRIIa H allotype extracellular domain with C-terminal His-tag (human, UniProt P12318 34-217); test: SPR Biacore T200, captured Ab, pH 7.4
T5 construct: extracellular domain; also called hFcγR IIa H
T5 sequence (looked up): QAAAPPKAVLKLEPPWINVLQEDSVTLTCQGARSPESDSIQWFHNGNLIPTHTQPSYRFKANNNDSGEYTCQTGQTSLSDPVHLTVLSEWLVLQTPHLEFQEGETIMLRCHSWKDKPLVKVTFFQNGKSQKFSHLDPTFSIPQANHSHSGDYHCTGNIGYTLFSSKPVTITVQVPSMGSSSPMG

[7] = target: T6, human FcγRIIa R allotype extracellular domain with C-terminal His-tag (human, UniProt P12318 34-217); test: SPR Biacore T200, captured Ab, pH 7.4
T6 construct: extracellular domain; also called hFcγR IIa R
T6 sequence (looked up): T5 sequence (looked up) with H134R

[8] = target: T3, human FcγRIa extracellular domain with …; test: SPR; KD of 04H1389-G1m/04L1305-k0MT divided by KD of variant
[9] = target: T2, human FcγRIIIa V allotype extracellular …; test: as above
[10] = target: T4, human FcγRIIIa F allotype extracellular …; test: as above
human FcRn [11] = target: T7, human FcRn (human, UniProt P55899 24-290; P61769 21-119); test: as above
T7 construct: Prepared by the method of WO 2010/107110; also called hFcRn

[12] = target: T5, human FcγRIIa H allotype extracellular …; test: as above
[13] = target: T6, human FcγRIIa R allotype extracellular …; test: as above
human FcRn [14] = target: T7, human FcRn; test: SPR Biacore T200, captured Ab, pH 6.0, steady state

T4 sequence (P08637 17-208): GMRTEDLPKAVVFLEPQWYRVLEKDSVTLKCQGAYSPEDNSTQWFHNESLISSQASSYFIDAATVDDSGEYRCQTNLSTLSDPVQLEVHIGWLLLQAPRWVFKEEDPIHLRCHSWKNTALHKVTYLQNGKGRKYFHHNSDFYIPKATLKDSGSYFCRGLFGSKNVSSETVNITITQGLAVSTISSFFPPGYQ
T2 sequence (P08637 17-208 F176V): as the sequence (P08637 17-208) above, with F160V counted along it
T3 sequence (P12314 16-292): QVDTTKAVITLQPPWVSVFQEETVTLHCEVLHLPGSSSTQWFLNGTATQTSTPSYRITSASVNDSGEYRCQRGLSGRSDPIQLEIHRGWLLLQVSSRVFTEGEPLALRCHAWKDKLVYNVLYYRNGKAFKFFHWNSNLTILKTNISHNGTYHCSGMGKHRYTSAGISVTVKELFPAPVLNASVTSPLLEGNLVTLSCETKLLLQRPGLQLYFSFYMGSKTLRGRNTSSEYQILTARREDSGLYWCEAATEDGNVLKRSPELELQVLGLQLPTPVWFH

Relative binding amount [1]: 1
Binding amount [2]: 0.011
Kd [3]: 880 nM
Kd [4]: 0.069 nM
Kd [5]: 690 nM
Kd [6]: 1100 nM
Kd [7]: 1600 nM
Relative value to KD between G1m and hFcγRs [8]: 1
Relative value to KD between G1m and hFcγRs [9]: 1
Relative value to KD between G1m and hFcγRs [10]: 1
Relative value to KD between G1m and hFcRn (human FcRn [11]): 1
Relative value to KD between G1m and hFcγRs [12]: 1
Relative value to KD between G1m and hFcγRs [13]: 1
Kd (human FcRn [14]): 1000 nM
B1: 04H1389-G1m/04L1305-k0MT (antibody, human IgG1, kappa)
heavy: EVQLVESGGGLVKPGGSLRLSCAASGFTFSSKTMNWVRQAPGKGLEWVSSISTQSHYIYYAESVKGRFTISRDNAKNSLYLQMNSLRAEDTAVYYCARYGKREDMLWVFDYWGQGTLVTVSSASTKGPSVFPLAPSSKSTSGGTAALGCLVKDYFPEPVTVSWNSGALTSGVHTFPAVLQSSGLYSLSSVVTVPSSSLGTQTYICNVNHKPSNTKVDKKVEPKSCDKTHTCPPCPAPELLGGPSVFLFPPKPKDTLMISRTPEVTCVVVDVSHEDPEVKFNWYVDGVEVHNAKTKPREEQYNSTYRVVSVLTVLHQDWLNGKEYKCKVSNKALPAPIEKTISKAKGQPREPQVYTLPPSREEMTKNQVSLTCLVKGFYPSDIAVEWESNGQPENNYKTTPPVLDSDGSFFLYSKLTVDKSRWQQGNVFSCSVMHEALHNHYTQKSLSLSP
light: DIVMTQSPLSLPVTPGEPASISCDGPSTGVGDYNYVHWYQQKPGQAPRLLIYFTSKKPSGVPDRFSGSGSGTDFTLKISRVEAEDVGVYYCQTYAAPLGPMFGQGTKLEIKRTVAAPSVFIFPPSDEQLKSGTASVVCLLNNFYPREAKVQWKVDNALQSGNSQESVTEQDSKDSTYSLSSTLTLSKADYEKHKVYACEVTHQGLSSPVTKSFNRGEC

— US20260022175A1 (Chugai, published 2026)
